Measured values taken from article PMC10175749.
Positions count from the first letter of the chain named. Names and notes keep the numbering of the source.

B1: RcG/FPPS1 (Rosa chinensis; F88Y) (protein)
chain: MADLKSKFLNVYSVLKSELLEDPAFEFTDASRQWVERMLDYNVPGGKLNRGLSVIDSYQLLQQGRELTEDEIFQASALGWCIEWLQAYFLVLDDMMDGSHTRRGQPCWFRLPKVGLIAANDGVLLRNHIPRILKKHFRQKPYYVDLVDLFNEVEFQTASGQLIDLITTIDGEKDLSKYSLSIHRRIVQYKTAYYSFYLSVACALLMSGEELDKHIDVKNLLVDMGIYFQVQDDYLDCFGDPETIGKIGTDIEDFKCSWLVVKALELSNEEQKKILHENYGNPDPAKVAKVKALYKELDLQGVFAEYERQSYEKLISSIEAHPSKAVQEVLKSFLGKIYKRKK
B2: RcG/FPPS1 (Rosa chinensis; V123I) (protein)
chain: B1 chain with Y88F, V123I
B3: RcG/FPPS1 (Rosa chinensis; F88Y/V123I) (protein)
chain: B1 chain with V123I
B4: RcG/FPPS1 (Rosa chinensis) (protein)
chain: B1 chain with Y88F
B5: RcFPPS2 (Rosa chinensis) (protein)
chain: MSNLRAKFMEVYSVLKSELINDPAFEFTDVSRQWIERMLDYNVPGGKLNRGLSVVDSFKLLKEGRELTDEEVFQSCALGWCIEWLQAYFLVLDDIMDGSHTRRGQPCWFRQPKIGMIAANDGIILRNHIPRILKNHFRVMPYYVDLLDLFNEVEFQTAHGQMIDLITTHEGEKDLSKYSLEIHRRIVQYKTAYYSFYLPVACALVMAGKNVESHADVKNILIEMGTYFQVQDDYLDCFGDPEVIGKVGTDIQDFKCSWMVVKALELSNEEQKKLLHENYGKDDQECIAKVKELYNVLDLQGVFTEYESSSYDKLTKSIEAHPSKAVQAVLKSFLAKIYKRQK

Substrate: C=C(C)CCO[P@@](=O)(O)OP(=O)(O)O
Test: purified protein
Conditions: IPP 0.5-50 µM
[1] = co-substrate GPP 60 µM, FPP formation

| Protein | Km [1] | Km (co-substrate DMAPP 60 µM, GPP formation) |
| --- | --- | --- |
| B1 | 9.08 ± 0.74 µM | – |
| B2 | 14.74 ± 1.94 µM | – |
| B3 | 12.78 ± 3.07 µM | – |
| B4 | – | 0.44 ± 0.03 µM |
| B5 | 13.1 ± 3.4 µM | – |
